In the supplement of paper PMC12042874 one finds amyloid nucleation score data, which are given here for 139 substances.

The nature of the series: amyloid nucleation score (Sup35N fusion, yeast selection) (log enrichment); library NNK2; higher = more nucleation; inactive = no reads after selection. In a few lines: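 The nucleation score equals the log enrichment of output over input reads from DiMSum, centred on the mode score of non-aggregating sequences. It was computed only for sequences with 100 or more input reads. The reads came from Illumina sequencing of plasmid inserts from psi-negative yeast expressing Sup35N fused to peptides of 20 random codons, induced with 100 μM copper sulfate for 24 hours and grown 7 days at 30°C without adenine and uracil.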

± gives the uncertainty stated by the source.

Turning to SLNLGRLYDLSMMLAWLGHQ, the amyloid nucleation score was found to be 2.16 ± 0.17.

The substance IFVCNMFVSYNSGNSGWCSV had an amyloid nucleation score of 7.675 ± 0.042.

For PRLNISLVMCNMFVGRGRFH, the amyloid nucleation score was 8.705 ± 0.039.

Regarding RRGSELINYRR, the amyloid nucleation score is -0.341 ± 0.79.

LMSQGCRGRLLL came in with an amyloid nucleation score of -0.356 ± 0.64.

In turn, NLLLFWSSHLSNECGSNSLG displayed an amyloid nucleation score of 4.66 ± 0.1.

Consider PKIMKFGKCYTP, for which the amyloid nucleation score is 0.065 ± 0.28.

STPIHDIFTPTLDRV showed an amyloid nucleation score of -0.08 ± 0.5.

Turning to HADNARRYQTTLMVGLRVVG, the amyloid nucleation score worked out at 0.409 ± 0.49.

For NRETGANCARMPKVNVWEQQ, the amyloid nucleation score stood at 0.865 ± 0.25.

RNSVFPILLAYDASDFVARK registered an amyloid nucleation score of -0.494 ± 0.41.

In the case of TNIFR, the amyloid nucleation score is -0.599 ± 1.

The substance FVCLVLRLCTMGSRASGLKK displayed an amyloid nucleation score of 0.255 ± 1.1.

Substance FVHIIESELYSEQTRESHLL displayed an amyloid nucleation score of -0.586 ± 0.29.

Regarding LANFGIIVWCCTCFYDD, the amyloid nucleation score turned out to be 8.268 ± 0.039.

KASLDN yielded an amyloid nucleation score of 0.018 ± 0.51.

On to IFMRVHLSMIVELKTHPDI, for which the amyloid nucleation score stood at 3.2 ± 0.056.

YYMLVYWDV showed an amyloid nucleation score of 0.56 ± 0.44.

Turning to SCHVFFVTIEGNASSANGHR, the amyloid nucleation score was 8.14 ± 0.07.

The substance YSGFLRCLAYALI showed an amyloid nucleation score of 0.061 ± 0.8.

SRRRLVPSLLTRIISGVRGR came in with an amyloid nucleation score of -0.877 ± 0.55.

CMGGQQPALGISSFTVVWLY: the amyloid nucleation score result is “inactive”.

DMWTSFWSCSTYRKEYFTRC: the amyloid nucleation score turned out to be 1.25 ± 0.11.

Consider HPTSYVPSYLSFASKWLRVA, for which the amyloid nucleation score is 0.571 ± 0.3.

Regarding AYMKYHAIRLNARFCGS, the amyloid nucleation score is 3.53 ± 0.075.

Substance VNASD showed an amyloid nucleation score of 2.3 ± 0.25.

Turning to YLRTFAKYWNPNARQLSIMR, the amyloid nucleation score result is “inactive”.

DGFRGLGLFHTY displayed an amyloid nucleation score of -0.561 ± 0.31.

With PSGFRSLLFEVHHFSRWAYD, the amyloid nucleation score stood at 0.691 ± 0.15.

In turn, GRGAAILYMECYAVAEVCTF came in with an amyloid nucleation score of 0.108 ± 0.26.

YRLYHILECSGVMMS showed an amyloid nucleation score of -1.01 ± 0.44.

FCNFGFIRNRSDDIGVSRGV returned an amyloid nucleation score of -1.07 ± 0.47.

Substance DNCRYVKRSSYSRVCAHYKS gave an amyloid nucleation score of -0.627 ± 0.41.

LSREFLNASL registered an amyloid nucleation score of -0.947 ± 0.49.

VLAFRFYFAVVLGLMIVYG: the amyloid nucleation score was -0.16 ± 0.62.

As for RRLGYPYFTR, the amyloid nucleation score is -0.743 ± 0.44.

On to YSFAMLGGQESRMSMCCGER, for which the amyloid nucleation score stood at 0.791 ± 0.32.

Substance ILLCCPVLFPINMKGSVCDK came in with an amyloid nucleation score of 8.463 ± 0.044.

In the case of FYWNEICFNSSKE, the amyloid nucleation score entry was “inactive”.

FSGSTIDWL gave an amyloid nucleation score of -0.302 ± 0.3.

Regarding TVYAIP, the amyloid nucleation score is -0.322 ± 0.65.

Take KKHIWGCMRYKMLTL: the amyloid nucleation score is -0.393 ± 1.1.

Take NRKLWVYIFSELSDDGLQFR: the amyloid nucleation score result is “inactive”.

PIDKSVAVLDRREMSDQRIN yielded an amyloid nucleation score of -0.753 ± 0.34.

DMNVVYTVCRVKARDCERDY: the amyloid nucleation score was determined as 5.322 ± 0.041.

Consider HIIPEYRVFLLLFHDDGAGF, for which the amyloid nucleation score result is “inactive”.

With YARTKDYVLVCLQGICAGVN, the amyloid nucleation score is -0.14 ± 1.

With GLRHGLCRSLLY, the amyloid nucleation score is -0.642 ± 1.1.

Consider LPCRFKKYALHNQSTTGFWI, for which the amyloid nucleation score was -0.187 ± 0.65.

VVLLAKYQVCIICIKEDLSN: the amyloid nucleation score amounted to 3.78 ± 0.12.

As to QWGDYIGAASMW, the amyloid nucleation score is -0.767 ± 0.49.

In turn, NTELSVMPGRLSNFIKLNVT gave an amyloid nucleation score of -0.248 ± 0.65.

In the case of LLMQVIRPVNLLFRWRELWA, the amyloid nucleation score was found to be 0.213 ± 0.34.

As to KMPGFLVCW, the amyloid nucleation score result is “inactive”.

Turning to ILQWEVSWLCKNHT, the amyloid nucleation score turned out to be 0.683 ± 0.35.

TLHCRSILGELLYVDMVKDD displayed an amyloid nucleation score of -0.297 ± 0.46.

LTCRTFYNNCVNEWSLHLSL: the amyloid nucleation score stood at 4.07 ± 0.072.

As for TVGIVGFHVVVRELWVGVRR, the amyloid nucleation score is 6.868 ± 0.066.

The substance FFEFRCWVMKGFWPLRMKDM showed an amyloid nucleation score of 0.414 ± 0.65.

With IVVFSGVQVRGHCWNVKGAN, the amyloid nucleation score was 7.64 ± 0.069.

Substance DDHLCSFLRFFTNKRKRA yielded an amyloid nucleation score of 4.67 ± 0.09.

FYPSWNLYRVRGQPYLNRVR returned an amyloid nucleation score of -0.352 ± 1.1.

Consider SNRCLIIFLILC, for which the amyloid nucleation score was found to be 5.92 ± 0.077.

NLLNKTWFVSILIKHTCMYS gave an amyloid nucleation score of 0.659 ± 0.56.

With LFMLGMSAQLVFAFSLLGGI, the amyloid nucleation score was determined as 2.62 ± 0.078.

Substance GELGQCVIKSVMSMLHKRAN registered an amyloid nucleation score of -0.347 ± 0.79.

Substance YSSAGDVMLNRQLDGCWLTR displayed an amyloid nucleation score of -0.006 ± 0.53.

On to RISECAIYARTGSYMSMRRR, for which the amyloid nucleation score amounted to 4.08 ± 0.051.

GSNTSDHDNLD yielded an amyloid nucleation score of -0.238 ± 0.5.

For ICGYEACNNIGP, the amyloid nucleation score is -1.12 ± 0.62.

For AVLFRRVAFRHNWPW, the amyloid nucleation score stood at 0.995 ± 0.68.

Substance KVVIYGCSS gave an amyloid nucleation score of -0.183 ± 0.65.

In turn, DCLIRIVQSTGVYVRWQGRA returned an amyloid nucleation score of 4.35 ± 0.086.

NTNAHVRMVDLVSGCASQWL returned an amyloid nucleation score of 1.75 ± 0.3.

Consider SDVRLVLAASEIRYGAGCRW, for which the amyloid nucleation score stood at 0.299 ± 0.65.

DEWPWAVPSGVSRGCAGSVY: the amyloid nucleation score worked out at 0.231 ± 0.32.

DTMRYLAGYLMACWPVEWSG yielded an amyloid nucleation score of 0.685 ± 0.22.

In the case of FSSSEHVFQVDGGFDKNRPI, the amyloid nucleation score was -1.47 ± 0.78.

On to VRFTAWICVYRYKEGWWRSL, for which the amyloid nucleation score was -0.417 ± 0.24.

Take KYSCTLVPFLLARFDLGSWG: the amyloid nucleation score was -0.112 ± 0.34.

In turn, ATVIEYKYVRGMYLLMTYTY showed an amyloid nucleation score of -0.536 ± 1.

GSNETPHLDALSPSALRMGH: the amyloid nucleation score came out at 0.103 ± 0.63.

ITHCLTAFSVLWILVYVW: the amyloid nucleation score result was “inactive”.

Substance LWAPAYCLIKC gave an amyloid nucleation score of 0.851 ± 0.57.

For NYYCFQIRMLENNEEVFGIG, the amyloid nucleation score entry is “inactive”.

For the substance VNTPDISGRHVSYFDFFVFY, the amyloid nucleation score is 6.337 ± 0.038.

As for VKFVLQVYYGVPST, the amyloid nucleation score came to 0.307 ± 0.27.

For the substance LCSSVLGGNRETAECFRFDQ, the amyloid nucleation score is -0.67 ± 0.34.

Take LCNGGWIIRRADVSGVTNVE: the amyloid nucleation score was -0.09 ± 0.24.

On to LRLSHMFLVNMSWGNVINLC, for which the amyloid nucleation score came to 3.28 ± 0.091.

YVATKYMRLNTCNLFWGGLT returned an amyloid nucleation score of 6.368 ± 0.05.

Turning to SSPGSCIMSENWVNSSWRFT, the amyloid nucleation score result was “inactive”.

In turn, IKISYTLMASEAVNTFS returned an amyloid nucleation score of -1.22 ± 1.1.

GQSCHYCRMTLNIDFTDWVL displayed an amyloid nucleation score of -0.228 ± 0.39.

As for LGIVHGNNY, the amyloid nucleation score is -1.14 ± 0.76.

Consider HYKTMFRFVCHFCENGGDGL, for which the amyloid nucleation score was found to be 10.18 ± 0.06.

For the substance VEIFNLMSGTIIPGLSKLMK, the amyloid nucleation score was -2.02 ± 0.45.

Substance RVLADVKRYRECQTRCRDAW had an amyloid nucleation score of 1.04 ± 0.34.

Substance SRFLDGSLLPKTNGLSQEMV displayed an amyloid nucleation score of 0.122 ± 1.1.

As for YIKFDGSTWKGVVFYYEMWE, the amyloid nucleation score is -1.12 ± 0.76.

With SGFLIRKHAKLYKPDQPLLV, the amyloid nucleation score is 0.101 ± 0.54.

For the substance LLHAVQDHVGLPTVYRRCSR, the amyloid nucleation score came out at 2.79 ± 0.11.

WGHLFRSPSRSSRFYRVLPA displayed an amyloid nucleation score of -0.159 ± 1.1.

SDHTVELFTCKPVMQTRQRT registered an amyloid nucleation score of 0.439 ± 0.27.

For the substance CKKEVL, the amyloid nucleation score result was “inactive”.

For QDKYTSEECESRFVTYETVV, the amyloid nucleation score is 0.695 ± 0.57.

With AGWNNSMGLDE, the amyloid nucleation score entry was “inactive”.

In turn, LYGHGSILVRTNGGISFRRN gave an amyloid nucleation score of -1.02 ± 1.1.

In turn, RYFLYFCYVGPNSAMFLSR yielded an amyloid nucleation score of -0.27 ± 1.1.

In the case of TDIRTSGDERWAFDSMRTGD, the amyloid nucleation score is 0.701 ± 0.37.

As to KGFDEVGMMAIGFDSWVGTR, the amyloid nucleation score turned out to be 0.242 ± 0.26.

DLDVN showed an amyloid nucleation score of -0.214 ± 0.56.

As for KLVVLCFLSVIVWVNGQR, the amyloid nucleation score was 4.67 ± 0.07.

CLGGTLYLRCFIVDLLWSTG: the amyloid nucleation score is -0.219 ± 0.55.

For the substance TWTLQQSVLVSEKNAKGRVT, the amyloid nucleation score came to 3.98 ± 0.078.

In turn, WCGREVNLHALLCKIDRLTI registered an amyloid nucleation score of 0.598 ± 0.49.

On to MLHSRLAREMHTLVILFFNK, for which the amyloid nucleation score stood at 0.05 ± 0.49.

With RFDSPG, the amyloid nucleation score stood at 0.558 ± 0.4.

With VAVTMHYDNFHCLLCCCSTL, the amyloid nucleation score worked out at 8.384 ± 0.078.

Substance QYIPMSLNCQLQYGSHAGQE registered an amyloid nucleation score of -0.216 ± 0.49.

On to CLAFLGLLKSFMITKGW, for which the amyloid nucleation score is -1.49 ± 0.78.

As for PHDGRNWFSVSDLMIGSDVG, the amyloid nucleation score was 0.505 ± 0.36.

The substance NWNVRRYVTPAFEFRGCV displayed an amyloid nucleation score of 0.833 ± 0.74.

Substance LLAFFMWSLRQRDSGTLLLD returned an amyloid nucleation score of -0.63 ± 0.52.

Substance VDRHYRSLRFVVGQSVLHSK came in with an amyloid nucleation score of 4.952 ± 0.046.

KCFKVRTDLWRSC displayed an amyloid nucleation score of 1.38 ± 0.53.

VAQAQQQYP returned an amyloid nucleation score of 1.08 ± 0.53.

On to KFGNSCR, for which the amyloid nucleation score is -0.428 ± 0.42.

As for SVYLGCRCHVMFVRLTVAFV, the amyloid nucleation score result was “inactive”.

Consider KGKTLLYSAKHIVFNR, for which the amyloid nucleation score was determined as 0.482 ± 0.3.

The substance FHTLRVE came in with an amyloid nucleation score of 1.46 ± 0.3.

The substance LGYFTLSFS returned an amyloid nucleation score of 0.627 ± 0.81.

KLFCTKVNIRRTSYSVTSIY: the amyloid nucleation score result is “inactive”.

NCHMR came in with an amyloid nucleation score of -0.19 ± 0.34.

Turning to ITYNIEISMRDF, the amyloid nucleation score came to 4.32 ± 0.11.

SFVRPGGWPNK had an amyloid nucleation score of -0.264 ± 0.76.

As for HLEPRIPLWMPVFGVSKVRS, the amyloid nucleation score came out at 2.7 ± 0.12.

With CLSCGLRTEDLYWDTRICSD, the amyloid nucleation score is 1.18 ± 0.29.

With LVALK, the amyloid nucleation score came out at 1.08 ± 0.51.
